Measurements published in patent US20040029178A1, “Novel g protein-coupled receptor proteins and dnas thereof” (priority 2000, published 2004).
Peptide text beside a SMILES is read from it.

What was measured:
TGR26 [1] = target: T1, TGR26 (Rattus norvegicus, UniProt Q56UD9); assay: Receptor binding using [125I-Tyr10]-hGPR8L (1-23) and membrane fraction of TGR26 expressing CHO cells; conditions: for IC50: membrane fraction of TGR26 expressing CHO cells, [125I-Tyr10]-hGPR8L (1-23), method of Example 8; for inhibition for the specific binding of [125I-Tyr10]-hGPR8L (1-23): membrane fraction of TGR26 expressing cells, in words
T1 construct: expressed in transfected cells; whole cells in A1, membrane fraction in A2 and A3
T1 sequence (Q56UD9 1-329): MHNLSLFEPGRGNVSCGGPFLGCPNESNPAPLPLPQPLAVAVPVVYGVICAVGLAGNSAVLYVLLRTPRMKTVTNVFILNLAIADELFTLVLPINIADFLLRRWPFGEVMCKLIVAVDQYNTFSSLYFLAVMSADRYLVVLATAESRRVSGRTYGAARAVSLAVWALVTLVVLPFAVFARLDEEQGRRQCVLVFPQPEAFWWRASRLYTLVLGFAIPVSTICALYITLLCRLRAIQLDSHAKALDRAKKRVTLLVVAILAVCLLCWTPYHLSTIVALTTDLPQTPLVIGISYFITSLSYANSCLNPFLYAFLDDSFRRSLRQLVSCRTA
Experimental: Using [^125I-Tyr^10]-hGPR8L (1-23) prepared by the method described in Reference Example 15 and a cell membrane fraction prepared from TGR26 expressing cells as described in Example 6, a receptor binding assay was carried out as follows.
Cell membrane fraction prepared from TGR26 expressing cells was diluted to various concentration with assay buffer (25 mM Tris-HCl, 5 mM EDTA, 0.05% CHAPS (3-[(3-Cholamidopropyl) Dimethyl-Ammonio]-1-Propanesulfonate), 0.1% BSA, 0.5 mM PMSF, 1 μg/ml Pepstatin, 20 μg/ml Leupeptin, 4 μg/ml E-64, pH 7.4), and 200 μl each of the diluent was dispensed into polypropilene test tube (Falcon 2053). In order to determine an amount of maximum binding, 2 μl of DMSO and 2 μl of 7 nM [^125I-Tyr^10]-hGPR8L (1-23) were added to the membrane fraction solution. Further, in order to determine a non-specific binding, 2 μl of 100 μM hGPR8L (1-23)/DMSO solution and 2 μl of 7 nM [^125I-Tyr^10]-hGPR8L (1-23) were added to the membrane fraction solution. The reaction was done at 25° C. for 75 minutes, and the reaction mixture was filtered by suction filtration using Whatman glassfilter (GF-F) treated with polyethyleneimine. In addition, the filter was washed twice with 1.5 ml of washing buffer (25 mM Tris-HCl, 5 mM EDTA, 0.05% CHAPS, 0.1% BSA, pH 7.4). After filtration, a radioactivity remaining on the filter was counted using γ-counter, and an amount of specific binding was estimated by subtracting an amount of non-specific binding from an amount of maximum binding.
Where the concentration of membrane fraction was set to 3 μg/ml, an inhibition for the specific binding of [125I-Tyr^10]-hGPR8L (1-23) to the membrane fraction of TGR26 expressing cells by hGPR8L (1-23) and hGPR8L (1-30) was investigated.
A receptor binding activity of human- and porcine-homologue derivatives of GPR8 ligand peptide obtained in the reference examples was measured using a membrane fraction of TGR26 expressing CHO cells and [^125I-Tyr^10]-hGPR8L (1-23) by the method described in Example 8. The receptor binding activity is represented by concentration of 50% inhibition for binding (IC50 value).

TGR26 [2] = target: T1, TGR26; assay: GTPγS binding activity using a membrane fraction of TGR26 expressing CHO cells; type: biochemical; conditions: various concentrations
Experimental: Promoting activity for [^35S]-guanosine 5′-(γ-thio) triphosphate (GTPγS) binding to a membrane fraction of TGR26 expressing cells was assayed in accordance with the following method.
To 1×10^8 of TGR26 expressing CHO cells, 10 ml of homogenating buffer (10 mM NaHCO3, 5 mM EDTA, 0.5 mM PMSF (phenylmethylsulfonyl fluoride), 1 μg/ml Pepstatin, 4 μg/ml E-64, 20 μg/ml Leupeptin) was added, and the cells were disrupted using Polytron (12,000 rpm, 1 minute). Supernatant was obtained from the disrupted cell suspension by centrifugation (1,000 g, 15 minutes). In addition, the supernatant was ultracentrifuged (Beckman Type 30 rotor, 30,000 rpm, 1 hour), and precipitate obtained was kept as a membrane fraction of TGR26 expressing CHO cells.
The membrane fraction of TGR26 expressing CHO cells was diluted with membrane dilution buffer (50 mM Tris HCl buffer (pH 7.4), 5 mM MgCl2, 150 mM NaCl, 1 μM GDP, 0.1% BSA) to prepare a cell membrane fraction solution for assay at 30 μg/ml of protein concentration. To 200 μl of membrane fraction solution for assay, 2 μl of 50 nM [^35S]-guanosine 5′-(γ-thio) triphosphate (NEN) and 2 μl of sample/DMSO solution having an appropriate concentration were added. Then the mixture was incubated at 25° C. for one hour. The mixture was filtrated, and further the filter was washed twice with 1.5 ml of washing buffer (50 mM Tris HCl buffer (pH 7.4), 5 mM MgCl2, 1 mM EDTA, 0.1% BSA). Finally, a radioactivity on the filter was determined by liquid scintillation counter.
Various concentration of hGPR8L (1-23) or hGPR8L (1-30) was mixed with a membrane fraction of the TGR26 expressing cell in accordance with the method described in Example 6, and a promoting activity of GTPγS binding was assayed.

TGR26 [3] = target: T1, TGR26; assay: Inhibition of intracellular cAMP production using TGR26 expressing CHO cells; type: cell-based; conditions: 2 μM forskolin, various concentrations
Experimental: TGR26 expressing CHO cells prepared in Example 3 were seeded on 24-well plate at 5×10^4 cells/well and cultivated for 48 hours. The cells were washed with MEMα buffer (pH 7.4) containing 0.2 mM 3-isobutyl-methylxanthine, 0.05% BSA (bovine serum albumine) and 20 mM HEPES [hereafter, MEMα buffer (pH 7.4) containing 0.2 mM 3-isobutyl-methylxanthine, 0.05% BSA (bovine serum albumine) and 20 mM HEPES may be referred to as reaction buffer]. Then, 0.5 ml of the reaction buffer was added to the cells and the suspension was incubated for 30 minutes in the incubator. After removal of the reaction buffer and newly adding 0.25 ml of the reaction buffer to the cells, an appropriate concentration of sample in DMSO solution and 0.25 ml of the reaction buffer containing 2 μM forskolin were added to the cells and the mixture was reacted at 37° C. for 30 minutes. For termination of the reaction, 100 μl of 20% perchloric acid was added. Subsequently, the mixture was stood on ice for an hour to extract intracellular cAMP. The cAMP level in the extract was measured using the cAMP EIA Kit (Amersham Pharmacia Biotech).
The human homologue of GPR8 ligand peptide consisting of 23 residues represented by […], which was obtained in Reference Example 12 (hereafter, sometimes referred to as hGPR8L (1-23)), or the human homologue of GPR8 ligand peptide consisting of 30 residues represented by […], which was obtained in Reference Example 13 (hereafter, sometimes referred to as hGPR8L (1-30)) was administered at various concentrations to […] TGR26 expressing CHO cells by the method described in Example 4, and an inhibiting activity of intracellular cAMP production was measured.
In the figure, when an amount subtracted intracellular cAMP level with the reaction buffer from intracellular cAMP level with the reaction buffer containing forskolin is indicated as 100%, the inhibiting activity of cAMP synthesis is indicated as an amount subtracted intracellular cAMP level with hGPR8L (1-23) or hGPR8L (1-30) from intracellular cAMP level with the reaction buffer by representation of percentage (%).

Compound	IC50 (TGR26 [1]) [µM]	promoting activity of GTPγS binding (TGR26 [2])	inhibiting activity of intracellular cAMP production (TGR26 [3])	inhibition for the specific binding of [125I-Tyr10]-hGPR8L (1-23) (TGR26 [1])
CSCC[C@H](NC(=O)[C@H](CC(C)C)NC(=O)[C@H](CC(C)C)NC(=O)CNC(=O)[C@H](C)NC(=O)[C@H](C)NC(=O)[C@H](CCCNC(=N)N)NC(=O)CNC(=O)[C@@H](NC(=O)[C@@H](NC(=O)[C@H](Cc1c[nH]cn1)NC(=O)[C@H](Cc1ccc(O)cc1)NC(=O)[C@H](CCCNC(=N)N)NC(=O)[C@@H]1CCCN1C(=O)[C@H](CO)NC(=O)[C@H](C)NC(=O)[C@@H](NC(=O)[C@H](Cc1c[nH]cn1)NC(=O)[C@H](CCCCN)NC(=O)[C@@H](N)Cc1ccc(O)cc1)C(C)C)[C@@H](C)O)C(C)C)C(=O)NCC(=O)N[C@@H](CC(C)C)C(=O)O [hGPR8L (2-23), Tyr-Lys-His-Val-Ala-Ser-Pro -Arg-Tyr-His-Thr-Val-Gly-Arg-Ala-Ala-Gly-Leu-Leu-Met-Gly-Leu] (H-YKHVASPRYHTVGRAAGLLMGL-OH; C-terminus assumed)	0.24	–	–	–
CSCC[C@H](NC(=O)[C@H](CC(C)C)NC(=O)[C@H](CC(C)C)NC(=O)CNC(=O)[C@H](C)NC(=O)[C@H](C)NC(=O)[C@H](CCCNC(=N)N)NC(=O)CNC(=O)[C@@H](NC(=O)[C@@H](NC(=O)[C@H](Cc1c[nH]cn1)NC(=O)[C@H](Cc1ccc(O)cc1)NC(=O)[C@H](CCCNC(=N)N)NC(=O)[C@@H]1CCCN1C(=O)[C@H](CO)NC(=O)[C@H](C)NC(=O)[C@@H](NC(=O)[C@@H](N)Cc1c[nH]cn1)C(C)C)[C@@H](C)O)C(C)C)C(=O)NCC(=O)N[C@@H](CC(C)C)C(=O)O [hGPR8L (4-23), His-Val-Ala-Ser-Pro-Arg-Tyr -His-Thr-Val-Gly-Arg-Ala-Ala-Gly-Leu-Leu-Met-Gly-Leu] (H-HVASPRYHTVGRAAGLLMGL-OH; C-terminus assumed)	2	–	–	–
CSCC[C@H](NC(=O)[C@H](CC(C)C)NC(=O)[C@H](CC(C)C)NC(=O)CNC(=O)[C@H](C)NC(=O)[C@H](C)NC(=O)[C@H](CCCNC(=N)N)NC(=O)CNC(=O)[C@@H](NC(=O)[C@@H](NC(=O)[C@H](Cc1c[nH]cn1)NC(=O)[C@H](Cc1ccc(O)cc1)NC(=O)[C@@H](N)CCCNC(=N)N)[C@@H](C)O)C(C)C)C(=O)NCC(=O)N[C@@H](CC(C)C)C(=O)O [hGPRBL (9-23), Arg-Tyr-His-Thr-Val-Gly-Arg -Ala-Ala-Gly-Leu-Leu-Met-Gly-Leu] (H-RYHTVGRAAGLLMGL-OH; C-terminus assumed)	2.5	–	–	–
CSCC[C@H](NC(=O)[C@H](CC(C)C)NC(=O)[C@H](CC(C)C)NC(=O)CNC(=O)[C@H](C)NC(=O)[C@H](C)NC(=O)[C@H](CCCNC(=N)N)NC(=O)CNC(=O)[C@@H](NC(=O)[C@@H](NC(=O)[C@H](Cc1c[nH]cn1)NC(=O)[C@H](Cc1ccc(O)cc1)NC(=O)[C@H](CCCNC(=N)N)NC(=O)[C@@H]1CCCN1C(=O)[C@H](CO)NC(=O)[C@H](C)NC(=O)[C@@H](NC(=O)[C@H](Cc1c[nH]cn1)NC(=O)[C@H](CCCCN)NC(=O)[C@H](Cc1ccc(O)cc1)NC(=O)[C@@H](N)Cc1c[nH]c2ccccc12)[C@@H](C)O)[C@@H](C)O)C(C)C)C(=O)NCC(=O)N[C@@H](CC(C)C)C(=O)O [pGPR8L (1-23), Trp-Tyr-Lys-His-Val-Ala-Ser -Pro-Arg-Tyr-His-Thr-Val-Gly-Arg-Ala-Ala-Gly-Leu-Leu-Met-Gly-Leu]	–	GTPγS binding of the TGR26 expressing CHO cells was promoted depending on the concentration	intracellular cAMP production of the TGR26 expressing CHO cells was inhibited depending on the concentration	–
SEQ ID NO: 57: porcine homologue of hGPR8L (1-30), ligand peptide to GPR8 deduced from SEQ ID NO: 55 (WYKHTASPRYHTVGRAAGLLMGLRRSPYMW; Porcine)	–	GTPγS binding of the TGR26 expressing CHO cells was promoted depending on the concentration	intracellular cAMP production of the TGR26 expressing CHO cells was inhibited depending on the concentration	can also be confirmed
SEQ ID NO: 74: rat homologue of hGPR8L (1-30), ligand peptide to GPR8 deduced from SEQ ID NO: 72 (WYKHVASPRYHTVGRASGLLMGLRRSPYLW; Rat)	–	GTPγS binding of the TGR26 expressing CHO cells was promoted depending on the concentration	intracellular cAMP production of the TGR26 expressing CHO cells was inhibited depending on the concentration	can also be confirmed
SEQ ID NO: 92: mouse homologue of hGPR8L (1-30), ligand peptide to GPR8 deduced from SEQ ID NO: 90 (WYKHVASPRYHTVGRASGLLMGLRRSPYQW; Mouse)	–	GTPγS binding of the TGR26 expressing CHO cells was promoted depending on the concentration	intracellular cAMP production of the TGR26 expressing CHO cells was inhibited depending on the concentration	can also be confirmed
